The values that follow are results of earlier work, collected in article PMC10027511, “Disordered proteins mitigate the temperature dependence of site-specific binding free energies” (The Journal of Biological Chemistry, 2023).

For data set [1], the target named is Sos site 4 peptide site 4 peptide (Drosophila melanogaster) (UniProt P26675). As to the kind of experiment: 19F NMR lineshape analysis, 25 °C.
The target is the same in data set [2]. In words: 19F NMR lineshape analysis, 5 °C.
Data set [3] has the same target. As to the kind of experiment: 19F NMR lineshape analysis, 45 °C.
The target is the same in data set [4]. In words: 19F NMR lineshape analysis, 15 °C.
For data set [5] the target is unchanged. As to the kind of experiment: 19F NMR lineshape analysis, 35 °C.

For the substance “Drk N-terminal SH3 domain N-terminal SH3 (from UniProt Q08012)”, the Kd in data set [1] was 60 µM; in data set [2], 20 µM; in data set [3], 210 µM; in data set [4] it was 40 µM; in data set [5], 110 µM.

What is called Kd is the constant that tells how readily two partners part at equilibrium.
